This test deals with Aβ(1-40) monomer in 0.1% NaOH (human). In words: dot blot with densitometry; Aβ form dotted on nitrocellulose in serial dilution, antibody 0.2 µg/ml; higher value = weaker recognition.
Chain of Aβ(1-40) monomer in 0.1% NaOH (human) (peptide, as listed by the source): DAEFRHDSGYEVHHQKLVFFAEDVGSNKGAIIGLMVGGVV

B1: murine monoclonal anti-Aβ(20-42) globulomer antibody m4C9 (antibody, V domains shown)
VH: QVQLQQPGAELVKPGASVKLSCKAPGYTFTSYWMHWVKQRPGQGLEWIGRIDPKSGDTKYTEKFKSKATLTVDKPSSTAYMQLSSLTSEDSAVYYCTTMSKLSGTHAWFAYWGQGTLVTVSA
VL: DIKMTQSPSSMYASLGERVTITCKASQDINSYLTWFQQKPGKSPKTLIYRANRLVDGVPSRFSGSGSGQDYSLTISSLEYEDMGIYYCLQYDEFPLTFGAGTKLELK
Turning to B1, the dot blot relation of recognition of Aβ(20-42) globulomer to recognition of this Aβ form turned out to be 110000.

The record behind these values is US20150368299A1.
